The record followed here is the nanobody polyreactivity screen of Harvey et al. (2022).

This data set is described as follows: yeast display, Sf9 membrane polyspecificity reagent, FACS + sequencing; frameworks hold sequencing errors. Summed up:
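Sorting gates, low and high (top ~1%), were placed on anti-HA fluorescence to track expression and on streptavidin fluorescence to track reagent binding. A clone's polyreactivity label is taken from the gate it came out of. The reagent was 10% biotinylated, detergent-solubilized Sf9 membrane, applied for 1 hour at 4 °C to galactose-induced yeast display cells.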
For “QVQLVESGGGLVQAGGSLRLSCAASGRTFGNYAMGWYRQAPGKDRELVAALSTTGGRTSYADSVKGRFTISRDNAKNTVYLQMNSLKPEDTAVYYCNVYTTSQARRKRIDYDFWGQGTQVTVSS”, the “polyreactivity (PSR sort gate)” value is on record as “high polyreactivity”.
Next, “QVQIVESGGGLVQAGGSLRLSCPASGGIFTKNAMGWYRQAPGKERELVAGISRTGGNTYYADSVKGRFTISRDNAKNNVYLQMKSLKPEDTAVYYCKALYGGPHRLRYDYWGQGTQVTVSS”: “low polyreactivity”; “QVQLVESGGGLVQAGGSLRLSCAASGSIFVSYAMGWYRQAPGKERELVAAISSSGTRTYYADSVKGRFTISRDNAKNTVYLQMNSLKPEDTAVYYCAKDSYHTVWGGYWGQGTQVTVSS”: “high polyreactivity”; “QVQLVESGGGLVQAGGSLRLSSAASGSIFQYYTMGWYRQAPGKERELVASISSDGSTYYADSVKGRFTISRDNAKNTVYLQMNSLKPEDTAVYYCADVLWEPPVHPGYDYWGQGTQVTVSS”: “low polyreactivity”.
Regarding “QVQLVESGGGLVQAGGSLRLSCAASGLTFFYYAMGWYRQAPGKERELVAGISRSGGSTYYADSVKGRFTISRDNAKNTVYLQMISLKPEDTAVYYCAKRTLVASYIYREGEYWGQGTQVTVSS”, the “polyreactivity (PSR sort gate)” value is “high polyreactivity”.
Next, “QVQLVESGGGLVQAGGSLRLSCAASGRIFDGNAMGWYRQAPGKERELVAAISWTGGSTYYADSVKGRFTISRDNAKNTVYLQMNSLKPEDTAVYYCAADSGWWLDQWSWYDYWGQGTQVTVSS”: “low polyreactivity”; “QVQLVESGGGLVQAGGSLRLSCAASGIIFRRYAMGWYRQAPGKERELVAVISSGGSTNYADSVKGRFTISRDNAKNTVYLQMYSLKPEDTADYYCAAPSQSRGYYYWGQGTQVTVSS”: “high polyreactivity”; “QVQHVESGGGLVQAGGSLRLSCAASGSIFGRYAMGWYRPAPGKERELVAAITRSGVSTYYADSVTGRFTSARDNAKNTVDLQMNSLKPEDTAVYYCNAYYPIRSSPYGYYYWGQGTQVTVSS”: “high polyreactivity”.
Consider “QVQLVESGGGLVQAGGSLRLSCAASGRILAGYAMGWYRQAPGKERELVAVISVGTGSTYYADSVKGRFTISRDNAKNTVYLQMNSLKPEDTAVYYCAAVTAITSLRMGYWGQGTQVTVSS”, for which the “polyreactivity (PSR sort gate)” value is recorded as “low polyreactivity”.
“QVQLVESGGGLVQAGGSLRLSCAASGLTFSQNAMGWNRQPPGKERELVGAITRSGSTTHYADSVKGRFTISRDKAKNTVYLQMNSLKPEDTAVYYCAAVAFQTRYYYWGQGTQVTLSS”: the “polyreactivity (PSR sort gate)” value was “high polyreactivity”.
On to “QVQLVESGGGLVQAGGSLRLSCAASGFTFARYAMGWYRQAPGKERELVAAITYSGGRTYYAVSVKGRFTISRDNAKNTVYLQMNSLKPEDTAVYYCAVKHSSPGRYYYWGQGTQVTVSS”, for which the “polyreactivity (PSR sort gate)” value is “high polyreactivity”.
The value for “QVQLVESGGGLVQAGGSLRLSCAASGGTFYANAMGWYRQAPGKERELVATITSSSGSTSYADSVKGRFTISRDNAKNTVYLQMNSLKPEDTAVYYCAKDSHAQGPYRYKHYHHTGDYWGQGTQVTVSS” was “low polyreactivity”; that for “QVQLVESGGGLVQAGGSLRLSCDASGRIFRVYAMGWYRPAPGKERELFAAISWSGGRTYYADSVKGRFTISRDNAKNTVYLQMNSLKPEDTAVYYCAAERGGPTYYSGGDYDYWGQGTQVTVSS” was “high polyreactivity”; that for “QVQLVESGGGLVQAGGSLRLSCAASGIILSYYVMGWYRQAPGKERELVAAISLRGGSRTYYADSVNGRFTISRDNAKNTVYLQMNSLKPEDTAVYYCAKLRWVYGRQTLMDYWGQGTQVTVSS” was “high polyreactivity”.
On to “QVQLVESGGGLVQAGVSLPLSCAASGIIFFSYAMGWYRPAPGKERELVAAITSRGTSTYYADSVKGRFTISRDNAKNTVYLQLISLKPEDTAVYYCAARWLWRASKVDYWGQGTQVTLSS”, for which the “polyreactivity (PSR sort gate)” value is recorded as “high polyreactivity”.
In the case of “QVQLVESGGGLVQAGGSLRLSCAASGFIFSYYAMGRYRQAPGKEREMVAAITWSGSSTYYADSVKGRFTISRDNAKNTVYLQMYSLIPEDNAVYSCAASSGGFRHYFYTYNYWGQGTQVTVSS”, the “polyreactivity (PSR sort gate)” value is recorded as “high polyreactivity”.
